Source: patent US20250320277A1

Key:
[1] = molecular target: CHIKV p62-E1 (Chikungunya virus); experiment: ELISA, plate-coated p62-E1, eight-point mAb dilution
[2] = molecular target: MAYV p62-E1 (Mayaro virus (BeAr 20290)); experiment: as above
[3] = molecular target: CHIKV p62-E1 (Chikungunya virus)
[4] = molecular target: CHIKV p62-E1 (Chikungunya virus); experiment: BLI, mAb on anti-human Fc sensor
[5] = molecular target: CHIKV p62-E1 (Chikungunya virus); experiment: BLI, […], global 1:1 fit; […]

| Binder | EC50 [1] | EC50 [2] | kon [3] | fold higher binding affinity for CHIKV p62-E1 than MAYV p62-E1 [4] | Kd [5] |
| --- | --- | --- | --- | --- | --- |
| DC2.M342 (antibody, V domains shown) VH: QVQLVQSGAEVKKSGSSVTVSCKASGSTFISHAISWVRQAPGEGLEWMGRLIPVSGTPKYAHKFQGRLTITADDSTTTVYLTLRSLRFEDTAVYYCATWDADSTTLLYYFMDVWGKGTTVTVSS VL: DIQVTQSPSTLSASVGDRVTITCRASQSISRWLAWYQQKPGKAPKLLIYKASSLESGVPSRFSGTGSGTEFTLTISSLQPDDFATYYCQQYNSYSTWTFGQGTKLEIK | 35 nM | 130 nM |  |  |  |
| DC2.M5 (antibody, V domains shown) VH: EVQLVESGGGLVQPGGSLSLACEVSGFILSDHYIDWVRQAPGKGLEWVGRSRNKAKRYTTEYAASVKGRFTISRDDSNNSLYLLMKSLKTEDTAVYFCTRAGYYDKNGDSLDALDIWGQGTMVTVSS VL: DIQVTQSPSSLSASVGDRVTITCRTSQTVSSNLNWYQQRPGKAPKLLISGISDLHSGVPSRFSGSGSGTDSTLTISSLQPEDSATYYCQQSYSLPRTFGQGTKVEIK | 33 nM | 39 nM |  |  |  |
| DC2.M336 (antibody, V domains shown) VH: QVQLVQSGGRLVKPGGSLRLSCAASGFTIIDSYMSWIRQAPGKGLEWISYINPSGSVIYYSDSVKGRFISSRDNAKNSVYLQLSSLRAEDAAVYYCARGIYDQSDAFDLWGQGTTVTVSS VL: DIVLTQSPSSLSASVGDRVTITCRASQGISNSLAWYQQRPGKAPKLLIYGASRLGSGVPSRFSGSGSGADYTLTISGLQPEDFATYYCQQYYITPPMTFGPGTKVDIK | 0.9 nM | 12.5 nM |  |  |  |
| DC2.M301 (antibody, V domains shown) VH: QVQLVQSGAEVKKPGAAVKVSCKASGYTFSGYYIHWVRQAPGQGLEWMGWINPNSGGTDFAQKFQGRVTMTRDTSISTAYMELSRLRSDDTAVYLCSRDPGYTYGYPLGYWGQGTLVTVSS VL: ETTLTQSPGTLSLSPGERATLSCRASQSVSSSYLAWYQQKPGQAPRLLIYGTSSRATGIPDRFSGRGSGTDFTLTISRLEPEDFAVYYCQQYGNSPPYTFGQGTKVDIK | 0.88 nM |  | 260000 M⁻¹ s⁻¹ | 10 fold | 1.6 nM |
| DC2.M17 (antibody, V domains shown) VH: EVQLVESGSELKKPGASVRVSCEASGYSFTSHTIVWMRQAPGQGLECLGWINTNTGNPTYAQGFTGRFVFSLDTSVSTAYLQISSLKAADTAVYYCARVLKCLGGSASCSGHGYYDYGMAVWGQGTTVTVSS VL: DIVLTQSPLSLPVTPGEPASISCRSSQSLLHSNGYNFLHWYLQKPGQSPQLLIYLGSIRASGVPDRFSGSGSGTDFTLKISRVEAEDVGVYYCMQALQTFMYTFGQGTKLEIK | 0.9 nM |  |  |  |  |
| DC2.M287 (antibody, V domains shown) VH: EVQLVESGGGLVQPGGSLRLSCAASGFTFRDYWMIWVRQTPGKGLEWVANINRNGNEKHYVDSLKGRFTISRDNTKNSLYLQVNGLSAEDTAVYYCVRDSSPSFGPGNYYDAFDIWGQGTTVTVSS VL: DIRVTQSPSSLSASVGDRVTITCRASQDIRNEVGWYQQKPGQAPKVLIFAASTLQSGVPSRFRGSGSGTVFTLTISSLQPEDLATYYCLQDFNYPRTFGQGTKVDIK | 43 nM |  |  |  |  |
